Laboratory results published in US6492116, “Assay for identifying inhibitors of the interaction between proteins p53 and dm2” (Cancer Research Campain Technology Ltd.).

Target: p53D30 (human p53 residues 1-362) (Homo sapiens, UniProt P04637 SEQ:1-362)
Test: EMSA; 50 mM Tris-HCl, 50 mM NaCl, 5% glycerol, 0.1% Triton X-100, 10 mM DTT, 50 ug/ml poly(dI-dC), pH 7.6, 22 C; monoclonal antibodies included as mentioned; gel result not shown in the text
Settings: chain copies: 4; label: 33P 5' end; HindIII-compatible 5' overhangs
Method: A 20 μl reaction volume containing 50 mM Tris. HCI, 50 mM NaCI, 5% (v/v) glycerol, 0.1% (v/v) Triton X-100, 10 mM DTT and 50 μg/ml polydeoxyinosinic-deoxycytidylic acid–pH=7.6 (binding buffer) are incubated for 30 min at 22° C. in the presence of the indicated amounts of p53D30, of radiolabelled oligonucleotides and of the mentioned monoclonal antibodies. Reactions are loaded onto a native 4% polyacrylamide gel containing 0.5×Tris.HCI–boric acid–pH=8.0 which had undergone pre-electrophoresis at 200 V for 45 min at 4 ° C. Electrophoresis is continued at 200 V from 90 to 120 min at 4° C. Gels are dried prior exposure to X-ray film (Amersham Hyperfilm-MP).

Chain of p53D30 (human p53 residues 1-362) (P04637 1-362): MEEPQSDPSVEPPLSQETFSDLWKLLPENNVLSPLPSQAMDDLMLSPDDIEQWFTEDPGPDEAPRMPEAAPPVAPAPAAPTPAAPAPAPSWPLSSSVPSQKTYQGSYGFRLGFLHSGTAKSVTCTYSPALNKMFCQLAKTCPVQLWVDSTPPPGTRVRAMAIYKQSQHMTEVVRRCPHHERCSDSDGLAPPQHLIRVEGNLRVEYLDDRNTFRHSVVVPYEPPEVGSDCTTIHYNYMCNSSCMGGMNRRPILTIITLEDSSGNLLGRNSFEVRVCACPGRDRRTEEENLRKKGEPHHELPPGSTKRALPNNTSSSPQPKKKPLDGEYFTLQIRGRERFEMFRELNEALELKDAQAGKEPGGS

B1: p53 consensus site oligonucleotide I/II (dsDNA)
DNA 1: AGCTTAGACATGCCTAGACATGCCTA
DNA 2: AGCTTAGGCATGTCTAGGCATGTCTA
Does B1 bind?
Result: binds
